Measurements as given in IntAct's records for PubMed 35512704.

B1: Mothers against decapentaplegic homolog 4 (Homo sapiens), Q13485 (parent)
chain: MDNMSITNTPTSNDACLSIVHSLMCHRQGGESETFAKRAIESLVKKLKEKKDELDSLITAITTNGAHPSKCVTIQRTLDGRLQVAGRKGFPHVIYARLWRWPDLHKNELKHVKYCQYAFDLKCDSVCVNPYHYERVVSPGIDLSGLTLQSNAPSSMMVKDEYVHDFEGQPSLSTEGHSIQTIQHPPSNRASTETYSTPALLAPSESNATSTANFPNIPVASTSQPASILGGSHSEGLLQIASGPQPGQQQNGFTGQPATYHHNSTTTWTGSRTAPYTPNLPHHQNGHLQHHPPMPPHPGHYWPVHNELAFQPPISNHPAPEYWCSIAYFEMDVQVGETFKVPSSCPIVTVDGYVDPSGGDRFCLGQLSNVHRTEAIERARLHIGKGVQLECKGEGDVWVRCLSDHAVFVQSYYLDREAGRAPGDAVHKIYPSAYIKVFDLRQCHRQMQQQAATAQAAAAAQAAAVAGNIPGPGSVGGIAPAISLSAAAGIGVDDLRRLCILRMSFVKGWGPDYPRQSIKETPCWIEIHLHRALQLLDEVLHTMPIADPQPLD
partner: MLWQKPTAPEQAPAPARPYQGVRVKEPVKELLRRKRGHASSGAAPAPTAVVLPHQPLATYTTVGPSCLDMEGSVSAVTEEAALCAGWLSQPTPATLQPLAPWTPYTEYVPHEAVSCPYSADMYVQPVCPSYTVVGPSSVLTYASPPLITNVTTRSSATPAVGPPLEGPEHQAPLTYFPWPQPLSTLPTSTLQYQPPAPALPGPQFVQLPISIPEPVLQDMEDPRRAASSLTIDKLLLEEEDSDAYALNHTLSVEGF
B2: Mothers against decapentaplegic homolog 4 (Homo sapiens), Q13485 (parent)
chain: B1 chain
partner: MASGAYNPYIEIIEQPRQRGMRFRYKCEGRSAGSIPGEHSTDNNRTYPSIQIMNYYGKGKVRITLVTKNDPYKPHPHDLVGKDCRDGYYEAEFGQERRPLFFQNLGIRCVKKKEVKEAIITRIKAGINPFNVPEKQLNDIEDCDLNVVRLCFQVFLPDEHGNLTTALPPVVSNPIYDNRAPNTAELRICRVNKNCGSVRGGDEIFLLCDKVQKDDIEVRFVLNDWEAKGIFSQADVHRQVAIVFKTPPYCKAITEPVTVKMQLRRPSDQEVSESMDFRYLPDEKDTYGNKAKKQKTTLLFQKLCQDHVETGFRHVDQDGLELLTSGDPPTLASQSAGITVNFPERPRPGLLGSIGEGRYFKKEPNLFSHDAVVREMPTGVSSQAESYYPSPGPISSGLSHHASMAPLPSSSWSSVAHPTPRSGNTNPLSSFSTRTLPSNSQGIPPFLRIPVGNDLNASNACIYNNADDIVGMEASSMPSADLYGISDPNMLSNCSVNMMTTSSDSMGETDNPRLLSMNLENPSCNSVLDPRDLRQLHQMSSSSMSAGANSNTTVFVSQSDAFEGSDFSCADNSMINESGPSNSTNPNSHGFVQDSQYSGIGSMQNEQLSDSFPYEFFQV
B3: Speckle-type POZ protein (Homo sapiens), O43791 (parent)
chain: MSRVPSPPPPAEMSSGPVAESWCYTQIKVVKFSYMWTINNFSFCREEMGEVIKSSTFSSGANDKLKWCLRVNPKGLDEESKDYLSLYLLLVSCPKSEVRAKFKFSILNAKGEETKAMESQRAYRFVQGKDWGFKKFIRRDFLLDEANGLLPDDKLTLFCEVSVVQDSVNISGQNTMNMVKVPECRLADELGGLWENSRFTDCCLCVAGQEFQAHKAILAARSPVFSAMFEHEMEESKKNRVEINDVEPEVFKEMMCFIYTGKAPNLDKMADDLLAAADKYALERLKVMCEDALCSNLSVENAAEILILADLHSADQLKTQAVDFINYHASDVLETSGWKSMVVSHPHLVAEAYRSLASAQCPFLGPPRKRLKQS
partner: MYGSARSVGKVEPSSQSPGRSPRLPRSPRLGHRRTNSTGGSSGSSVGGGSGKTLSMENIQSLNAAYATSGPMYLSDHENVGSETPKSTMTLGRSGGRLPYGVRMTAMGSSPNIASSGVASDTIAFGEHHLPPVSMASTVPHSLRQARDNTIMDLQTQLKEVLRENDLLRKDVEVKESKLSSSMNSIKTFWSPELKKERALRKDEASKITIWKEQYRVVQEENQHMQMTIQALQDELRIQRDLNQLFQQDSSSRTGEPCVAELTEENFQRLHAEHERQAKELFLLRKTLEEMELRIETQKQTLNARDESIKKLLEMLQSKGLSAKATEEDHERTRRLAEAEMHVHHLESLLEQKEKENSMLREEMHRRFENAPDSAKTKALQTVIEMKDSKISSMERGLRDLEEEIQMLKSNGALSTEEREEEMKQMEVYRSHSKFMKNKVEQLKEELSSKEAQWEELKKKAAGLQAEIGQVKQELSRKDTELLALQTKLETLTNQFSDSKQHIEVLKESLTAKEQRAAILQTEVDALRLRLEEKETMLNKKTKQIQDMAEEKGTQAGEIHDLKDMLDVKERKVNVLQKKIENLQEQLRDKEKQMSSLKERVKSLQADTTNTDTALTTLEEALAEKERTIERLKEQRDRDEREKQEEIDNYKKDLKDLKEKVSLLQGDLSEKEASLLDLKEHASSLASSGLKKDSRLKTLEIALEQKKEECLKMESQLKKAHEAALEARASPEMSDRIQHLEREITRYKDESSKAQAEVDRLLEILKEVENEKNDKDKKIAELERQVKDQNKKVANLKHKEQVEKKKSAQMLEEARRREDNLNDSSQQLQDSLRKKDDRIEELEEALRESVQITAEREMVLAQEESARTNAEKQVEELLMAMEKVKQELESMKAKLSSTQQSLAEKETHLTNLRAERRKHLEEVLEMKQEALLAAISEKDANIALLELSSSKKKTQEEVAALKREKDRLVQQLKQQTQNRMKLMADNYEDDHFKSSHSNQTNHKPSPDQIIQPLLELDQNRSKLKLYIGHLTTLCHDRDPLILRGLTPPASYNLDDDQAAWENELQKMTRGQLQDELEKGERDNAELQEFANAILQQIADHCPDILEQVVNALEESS
B4: Mothers against decapentaplegic homolog 4 (Homo sapiens), Q13485 (parent)
chain: B1 chain
partner: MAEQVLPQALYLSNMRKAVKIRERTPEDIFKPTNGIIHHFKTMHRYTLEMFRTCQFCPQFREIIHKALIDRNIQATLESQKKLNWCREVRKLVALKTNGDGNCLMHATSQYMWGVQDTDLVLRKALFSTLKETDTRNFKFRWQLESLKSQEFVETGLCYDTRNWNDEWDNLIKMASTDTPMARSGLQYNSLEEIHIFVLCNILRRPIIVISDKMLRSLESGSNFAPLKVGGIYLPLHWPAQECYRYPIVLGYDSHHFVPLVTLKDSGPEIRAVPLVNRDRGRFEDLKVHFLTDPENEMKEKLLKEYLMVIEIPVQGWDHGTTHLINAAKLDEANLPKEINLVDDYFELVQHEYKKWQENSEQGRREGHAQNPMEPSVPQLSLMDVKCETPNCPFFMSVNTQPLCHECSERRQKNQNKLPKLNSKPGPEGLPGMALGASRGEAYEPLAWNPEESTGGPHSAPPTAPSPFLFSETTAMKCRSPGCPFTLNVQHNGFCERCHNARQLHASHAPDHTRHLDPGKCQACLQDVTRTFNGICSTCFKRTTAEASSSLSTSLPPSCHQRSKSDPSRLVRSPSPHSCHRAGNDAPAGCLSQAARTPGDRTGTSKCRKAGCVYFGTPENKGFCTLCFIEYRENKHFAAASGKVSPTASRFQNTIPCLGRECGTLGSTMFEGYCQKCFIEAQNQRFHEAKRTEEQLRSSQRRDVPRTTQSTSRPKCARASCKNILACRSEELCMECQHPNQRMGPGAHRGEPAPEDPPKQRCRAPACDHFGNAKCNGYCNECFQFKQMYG
B5: Mothers against decapentaplegic homolog 4 (Homo sapiens), Q13485 (parent)
chain: B1 chain
partner: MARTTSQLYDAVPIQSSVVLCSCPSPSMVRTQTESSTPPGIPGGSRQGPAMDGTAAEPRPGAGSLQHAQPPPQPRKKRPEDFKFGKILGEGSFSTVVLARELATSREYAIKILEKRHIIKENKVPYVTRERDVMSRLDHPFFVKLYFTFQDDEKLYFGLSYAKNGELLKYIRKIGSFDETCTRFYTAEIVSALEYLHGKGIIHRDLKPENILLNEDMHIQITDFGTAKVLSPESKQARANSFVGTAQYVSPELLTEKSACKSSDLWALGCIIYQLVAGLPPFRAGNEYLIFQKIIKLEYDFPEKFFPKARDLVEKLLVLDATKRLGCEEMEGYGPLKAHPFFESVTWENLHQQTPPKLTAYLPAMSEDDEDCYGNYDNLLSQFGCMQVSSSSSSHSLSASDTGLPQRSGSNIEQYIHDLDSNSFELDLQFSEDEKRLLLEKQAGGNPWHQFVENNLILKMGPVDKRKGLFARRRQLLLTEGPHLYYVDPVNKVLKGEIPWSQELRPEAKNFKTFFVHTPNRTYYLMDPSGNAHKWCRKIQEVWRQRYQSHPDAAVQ
B6: Mothers against decapentaplegic homolog 4 (Homo sapiens), Q13485 (parent)
chain: B1 chain
partner: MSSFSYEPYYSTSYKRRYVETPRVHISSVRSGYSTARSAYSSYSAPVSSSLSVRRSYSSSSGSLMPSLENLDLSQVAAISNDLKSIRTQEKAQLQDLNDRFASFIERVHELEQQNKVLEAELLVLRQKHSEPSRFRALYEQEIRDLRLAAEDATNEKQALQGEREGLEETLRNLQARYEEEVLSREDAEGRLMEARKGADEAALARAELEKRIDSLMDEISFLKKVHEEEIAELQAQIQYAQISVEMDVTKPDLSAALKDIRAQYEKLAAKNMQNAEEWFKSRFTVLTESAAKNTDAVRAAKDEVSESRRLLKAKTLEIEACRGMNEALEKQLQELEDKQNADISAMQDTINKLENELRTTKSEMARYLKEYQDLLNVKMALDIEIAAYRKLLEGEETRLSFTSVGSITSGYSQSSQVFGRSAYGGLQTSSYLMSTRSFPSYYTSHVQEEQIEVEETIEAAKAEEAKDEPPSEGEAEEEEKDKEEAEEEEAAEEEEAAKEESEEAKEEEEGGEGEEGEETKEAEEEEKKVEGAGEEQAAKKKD
B7: Speckle-type POZ protein (Homo sapiens), O43791 (parent)
chain: B3 chain
partner: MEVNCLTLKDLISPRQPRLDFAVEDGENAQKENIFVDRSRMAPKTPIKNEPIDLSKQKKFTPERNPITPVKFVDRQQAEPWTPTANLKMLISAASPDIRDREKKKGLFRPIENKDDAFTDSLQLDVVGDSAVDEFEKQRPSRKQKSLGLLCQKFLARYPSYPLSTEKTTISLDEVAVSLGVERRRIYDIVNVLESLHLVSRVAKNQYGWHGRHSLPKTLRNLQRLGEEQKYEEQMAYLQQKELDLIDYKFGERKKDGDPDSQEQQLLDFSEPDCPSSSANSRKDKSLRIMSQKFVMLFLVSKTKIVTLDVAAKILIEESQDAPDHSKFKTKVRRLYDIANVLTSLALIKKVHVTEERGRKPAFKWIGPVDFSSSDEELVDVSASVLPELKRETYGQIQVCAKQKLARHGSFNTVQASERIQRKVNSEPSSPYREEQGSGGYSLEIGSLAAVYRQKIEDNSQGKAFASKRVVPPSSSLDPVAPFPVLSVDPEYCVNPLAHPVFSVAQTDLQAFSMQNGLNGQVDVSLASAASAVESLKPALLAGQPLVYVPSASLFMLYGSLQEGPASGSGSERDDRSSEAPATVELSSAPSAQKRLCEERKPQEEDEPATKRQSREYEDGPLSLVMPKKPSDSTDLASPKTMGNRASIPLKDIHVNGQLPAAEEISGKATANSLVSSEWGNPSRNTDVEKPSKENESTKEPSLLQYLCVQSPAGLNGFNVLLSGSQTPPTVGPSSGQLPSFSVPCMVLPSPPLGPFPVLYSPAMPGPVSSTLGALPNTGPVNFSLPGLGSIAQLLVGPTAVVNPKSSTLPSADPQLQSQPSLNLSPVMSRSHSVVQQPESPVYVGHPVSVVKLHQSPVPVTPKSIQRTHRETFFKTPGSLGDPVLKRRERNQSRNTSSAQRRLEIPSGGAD

Variants of: B1
Conditions: with obf1_human POU2AF1, Q16633

effect of a mutation on the interaction	Variant
with no effect	G386D

Variants of: B1
Conditions: with obf1_human POU2AF1, Q16633
Remark: another data set of the same source

effect of a mutation on the interaction	Variant
increasing interaction strength	G386D

Variants of: B2
Conditions: with rel_human REL

effect of a mutation on the interaction	Variant
with no effect	G386D

Variants of: B3
Conditions: with rb6i2_human ERC1, Q8IUD2

effect of a mutation on the interaction	Variant
with no effect	Y87C

Variants of: B3
Conditions: with rb6i2_human ERC1, Q8IUD2
Remark: another data set of the same source

effect of a mutation on the interaction	Variant
with no effect	F102C

Variants of: B3
Conditions: with rb6i2_human ERC1, Q8IUD2
Remark: another data set of the same source

effect of a mutation on the interaction	Variant
with no effect	F133V

Variants of: B3
Conditions: with rb6i2_human ERC1, Q8IUD2
Remark: another data set of the same source

effect of a mutation on the interaction	Variant
with no effect	F133L

Variants of: B4
Conditions: with tnap3_human TNFAIP3, P21580

effect of a mutation on the interaction	Variant
with no effect	G386D

Variants of: B5
Conditions: with pdpk1_human PDPK1, O15530

effect of a mutation on the interaction	Variant
with no effect	R361H

Variants of: B6
Conditions: with nfl_human NEFL

effect of a mutation on the interaction	Variant
with no effect	G386D

Variants of: B7
Conditions: with e2f7_human E2F7, Q96AV8

effect of a mutation on the interaction	Variant
with no effect	Y87C

Variants of: B7
Conditions: with e2f7_human E2F7, Q96AV8
Remark: another data set of the same source

effect of a mutation on the interaction	Variant
with no effect	F133V
